In the DeepSol protein solubility set:

assay: soluble on expression in E. coli; label from the status in PepcDB or PDB records

| Sequence | soluble on expression in E. coli |
| --- | --- |
| MGSDKIHHHHHHMKEVFDLRGRVALVTGGSRGLGFGIAQGLAEAGCSVVVASRNLEEASEAAQKLTEKYGVETMAFRCDVSNYEEVKKLLEAVKEKFGKLDTVVNAAGINRRHPAEEFPLDEFRQVIEVNLFGTYYVCREAFSLLRESDNPSIINIGSLTVEEVTMPNISAYAASKGGVASLTKALAKEWGRYGIRVNVIAPGWYRTKMTEAVFSDPEKLDYMLKRIPLGRTGVPEDLKGVAVFLASEEAKYVTGQIIFVDGGWTAN | soluble |
| MGSDKIHHHHHHMKGKHKIVVKNNRLHYEFEIKRNITIIKGDSATGKTTLINMIRQFANLGNASGIEIECDAPCTVLEGNLWQMLLKNLSGNIIFIDEENQFIRQQEFAELVKASDNYFVIITRENLYNLPYSVEEIYGLYSSGKYQNTKQIYQEMYHIYPLNQDLSCKPDKIIVEDTNSGYEYFKAISKEKNIVCESAGGKTKIFAMLEQLKAETESICVIADGAAIGPEMDALYKMSVEKGNIKLYLPESFEWIILSSELLEDKEIKDIIDKPENYIESQEYFSWERFFTKLLVDKTAGTYLKYQKGKLNPTYLHEKNKNIILKNIKNSIDF | not soluble |
| MGSDKIHHHHHHMKHGGFSAASEAENISKSKLSRRIIDLENKFNVSLIQRTTRHFKVTDLGQEFYEECCKVIAQVECAENVLLKQKSEPQGLVKVSCPPLMMHFQIRKILNQFLKTYPKVEISLELTSRRVDILHDDIDLAIRTNFEPNEDSNLIVRDVIKTDHCLVASPELLQGRTIKHYSELQDFPSISLGTQKQNYIWHLCNIRNGESVDVPYQPRIKSNDLAGVYYAVMDGLGIADLPFLTVESEIRKGTLVHILPDWKSNIGMLQLVYVSRKGQRLVVEKLIETLIDELRRLPESHEGYLPT | not soluble |
| MGSDKIHHHHHHMKHIEDNAGSERKPLAGAAKSVPAVAADKPYHRKNLREDLLRSALELTVERDGPAFSLRELAMREKVSHTAVYRHFSDKASLFAELSSEGFRQLALYQNRTIEAPDLPPLARLEQMGATYVRFAMENVGFFRVMFDVNLAGEWEEARKGERTAFGNLVGLVRQCQSEGDIIDADPRAIATYLVLSPHGLAHFNNIGHLTHLLQTSMTLDQLATQVFRLTLAPFLTKPYSEQDVRALVNSIF | not soluble |
| MGSDKIHHHHHHMKIDFHTHIYPDHVAVRTIAAVRQRAGIEAHTDGTLKGLKRSMTAAGIDISVVAAVATRPEQVSSIHCWLGGIRQPGIETMATTHPSNPLKSEQIKSLKRRGFKGFKLHPDYQHFFVDDFRMYPFYEAAAAEGMFILFHAGMDRGLPYPVHATPKRLAAVHEAVPRLCMIAAHLGGEEAYEETVAHLLGKDLYLDTSFVLRKMPRLFLERIFREHPPDKLLFASDSPWTDQREELNFLLQLPFLSVQDQEKICFSNAARLLGREA | not soluble |
| MGSDKIHHHHHHMKIFLDTANLEEIKKGVEWGIVDGVTTNPTLISKEGAEFKQRVKEICDLVKGPVSAEVVSLDYEGMVREARELAQISEYVVIKIPMTPDGIKAVKTLSAEGIKTNVTLVFSPAQAILAAKAGATYVSPFVGRMDDLSNDGMRMLGEIVEIYNNYGFETEIIAASIRHPMHVVEAALMGVDIVTMPFAVLEKLFKHPMTDLGIERFMEDWKKYLENLKK | soluble |
| MGSDKIHHHHHHMKIHFVGIGGIGMSAVALHEFSNGNDVYGSNIEETERTAYLRKLGIPIFVPHSADNWYDPDLVIKTPAVRDDNPEIVRARMERVPIENRLHYFRDTLKREKKEEFAVTGTDGKTTTTAMVAHVLKHLRKSPTVFLGGIMDSLEHGNYEKGNGPVVYELDESEEFFSEFSPNYLIITNARGDHLENYGNSLTRYRSAFEKISRNTDLVVTFAEDELTSHLGDVTFGVKKGTYTLEMRSASRAEQKAMVEKNGKRYLELKLKVPGFHNVLNALAVIALFDSLGYDLAPVLEALEEFRGVHRRFSIAFHDPETNIYVIDDYAHTPDEIRNLLQTAKEVFENEKIVVIFQPHRYSRLEREDGNFAKALQLADEVVVTEVYDAFEEKKNGISGKMIWDSLKSLGKEAYFVEKLPELEKVISVSENTVFLFVGAGDIIYSSRRFVERYQSSKSSPSRVLGSNK | soluble |
| MGSDKIHHHHHHMKIKKGDTEAEILTKGAYLYSFKIGNRDMILRGDLERPTRGGMAILIPFANRVKNAEYVFEGVKYTLPQNREGNAIHGLVMDKEFNVIGKSEDSISLQYILEHEGYPSKLDCVITYKVFKYGLRIKIVVRNVGNKRAPLTVGAHPYFITADDWRIVVEKEESIKKCISFNKIPTGELVKTKLEHTDYDDCFLISGGIQLHSSYSKVRITRRNMPFVQIYTGVRGSIAIEPMSGAPDAYHNGLGLKILEPNESSYFAFAFRFH | not soluble |
| MGSDKIHHHHHHMKILWITSVYPSSMKPGEGVFHETQVQELQKLGLDITVICPRPFHSAPVRMLKKTYRKKDVRPEYEIRKGIPVYRPFYRAVPGQLKWAQPHRRIASAVLKTMKQRDLYPDLIHAHFAMPSGGAAAVVSESAQIPYVLTLHGSDVNVYPHYSKGAFKAFKRAVGSASVVLAVSHKLQEEAKKLSGFDSSVLPIGIQLSRFQGNEETKEEIRKRLGLPLDQRLAVYVGRLVREKGIFELSEAIESLQDSPKAVFVGDGPAKSTLTQKGHIVTGQVPNHQVRDYLLAADLFVLPSYSEGMPTVVIEALALRVPVICTDVGGVSSLFGKHQHLLIKPKSAQALAEAITRYEHEQIWKPEVADDLYETVQAQFDAGKNAKALHHQYQTVTKTSV | not soluble |
| MGSDKIHHHHHHMKITWFGHACFALEMEGKTIVTDPFDESVGYPIPNVTADVVTESHQHFDHNAHHLVKGNFRVIDRPGAYTVNGVKIKGVETFHDPSHGRERGKNIVFVFEGEGIKVCHLGDLGHVLTPAQVEEIGEIDVLLVPVGGTYTIGPKEAKEVADLLNAKVIIPMHYKTKYLKFNLLPVDDFLKLFDSYERVGNILELFEKPKERKVVVMEVQ | soluble |
| MGSDKIHHHHHHMKIVYFVDGLNRGGVESVVCHLSSSFAKLRNKIYIICLHKDMNDLHLEIPEYISVFYLPFESNRNHHVNYIRYLPNLVDLLKKIKPDIVHAHNSSFSYFFLSIGILLSRTVPVNIRSIHFSGFFLEKRTIEDKIRFIFDWCACRLLKTIIISVGPTVSRVVKRLYTSNQHLTIVNGIDTKEKFCKRNLTKSCMGISEDKYVAVYVARICEGKNHDTLIKAWEIVTQYHPSALLLFIGDGPLKEQYQSVVHEKSLDDKITFTGSIPNIVEYLSIADVGVFPSESEGLPLVLMEMMAVELPVVASKIPSCCDLIEENVNGILYETYDYKDLANKILSVLCDNELKKKLGEQAKLLVCNHYSIENMINRHNILYQKLLLKQNFTDAYN | not soluble |
| MGSDKIHHHHHHMKKAAIITIGSELLEGLILNKNAQFLCQELKNLGYRVVKVSTVGDDLISISEEVKTLLLKVDLLILTGGLGPTQDDLTRDAVAKVLNRSLKLNEELLSKIKEKIKKYHSEIPQNIERQALVIDGAEVLDNPVGSAPGQLLTVDGKIVILLPGPPRELIPMFNALKDRLRTPDALYQVVLKYYSIPEAVLEDLLKDILYSQNIVEVATMADHVEGVRLRLTTHMKNKEYLDEMVKKILDKTGEHLYGVNDEKMEEVVVRLLKDRKKTLAVAESCTGGMLSSLVVNVPGASEVFIGGVVAYSNDLKKHILGVREDTLKKHGAVSEECVQEMTEGLKKLTGADICVSISGIAGPSGGTPEKPVGTVFIDIFEHEHITMRYNFTGDRNMIRTRSAMMALENLRKYLKGRERV | not soluble |
| MGSDKIHHHHHHMKKGFSALVEHNGYRVLVDTGTDGKILLNNMEGLGIDPNSIDALFLTHGHYDHTGGIAELLKARKDTLDVYAHPRIFEKRIALKPKRRDIGIPFSQEELESLGAIFHLNDKALEFLPGLISSGEIKRETWDRAVGYLLNNEKDPVRDDMALLIDLGDKIAVITGCGHSGILNIAKHAVEISKKPIRALIGGFHLRGASITILEDAVRGLKELNVEMLYPGHCTGIDEYAYLRMKLKAEHLNVGKEIVIK | not soluble |
| MGSDKIHHHHHHMKKHAYLIIAHDNWKILEKLLILLDDKRNDIYLHIDRKSNLINFSNNVHNANLFVFHEIDVRWGDISLIQVEFFLFKTAYCKGNYSYYHLISGSDLPLKTQDEIHAFFDAHYPTEFIGFSLEMTCDDRVNRAYIFPKYQRIKNRYGNKLLGSLRSFCAFLQKILNYNHYKLKDKLMIGPEWVSITEQSVSLILSKEKVIMKQYRFASCGDEVYKQTIIGNSFLFNYVYDKNDDYKGCMRYIDWTRGNPYIFRSADFEQLMSSDRMFARKFDEKVDFDIVERIFEVLNGQTSDSKMKYYF | not soluble |
| MGSDKIHHHHHHMKKILYLHAGAELYGADKVLLELIKGLDKNEFEAHVILPNDGVLVPALREVGAQVEVINYPILRRKYFNPKGIFDYFISYHHYSKQIAQYAIENKVDIIHNNTTAVLEGIYLKRKLKLPLLWHVHEIIVKPKFISDSINFLMGRFADKIVTVSQAVANHIKQSPHIKDDQISVIYNGVDNKVYYQSDARSVRERFDIDEEALVIGMVGRVNAWKGQGDFLEAVAPILEQNPKAIAFIAGSAFEGEEWRVVELEKKISQLKVSSQVRRIDYYANTTELYNMFDIFVLPSTNPDPLPTVVLEAMACGKPVVGYRHGGVCEMVKEGVNGFLVTPNSPLNLSKVILQLSENINLRKKIGNNSIERQKEHFSLKSYVKNFSKVYTSLKVY | not soluble |
| MGSDKIHHHHHHMKKIYKSLTVSAIVATVSLSALPQSLAITHESQPTKQQRTVLFDRSHGQTAGAADWVSDGAFSDYADSIQKQGYDVKAIDGHSNITEASLKSSKIFVIPEANIPFKESEQAAIVNYVKQGGNVVFISDHYNADRNLNRIDSSEAMNGYRRGAYEDMSKGMNAEEKSSTAMQGVKSSDWLSTNFGVRFRYNALGDLNTSNIVSSKESFGITEGVKSVSMHAGSTLAITNPEKAKGIVYTPEQLPAKSKWSHAVDQGIYNGGGKAEGPYVAISKVGKGKAAFIGDSSLVEDSSPKYVREDNGEKKKTYDGFKEQDNGKLLNNITAWMSKDSDGKSLKASGLTLDTKTKLLDFERPERSTEPEKEPWSQPPSGYKWYDPTTFKAGSYGSEKGADPQPNTPDDHTPPNQNVKISFDIPQNVSVNEPFEVTIHLKGFEANQTLENLRVGIYKEGGRQIGQFSSKDNDYNPPGYSTLPTVKADENGNATIKINAKVLESMEGSKIRLKLGDKTLITTDFK | not soluble |
| MGSDKIHHHHHHMKKLVATAPRVAALVEYEDRAILANEVKIRVRFGAPKHGTEVVDFRAASPFIDEDFNGEWQMFTPRPADAPRGIEFGKFQLGNMVVGDIIECGSDVTDYAVGDSVCGYGPLSETVIINAVNNYKLRKMPQGSSWKNAVCYDPAQFAMSGVRDANVRVGDFVVVVGLGAIGQIAIQLAKRAGASVVIGVDPIAHRCDIARRHGADFCLNPIGTDVGKEIKTLTGKQGADVIIETSGYADALQSALRGLAYGGTISYVAFAKPFAEGFNLGREAHFNNAKIVFSRACSEPNPDYPRWSRKRIEETCWELLMNGYLNCEDLIDPVVTFANSPESYMQYVDQHPEQSIKMGVTF | not soluble |
| MGSDKIHHHHHHMKKPQSNFPHLQLKDGILKDQLYHAFREAILDGRLHPRMKLPSSRALSETMQISRNSVLQGFERLIDEGYLLTKPGSGTYVSDTIPDELIDIPNSSRESAQAFDSNVDINPQLIEMARLKAKGNTDHSHSMLNIGVGCVDLFPHQLWGRLLGRVWRQSRKTLGKSNHSAGYLPLREAISDYARSTRGLNCTPEQIIIVNGTQQAINLTAQVLLQQGDEVWLDEPGYDGALGAFLSQNMRVRPVSVDVEGTNIADAIQRYPAVKLAFTAPSHQFPLGGMLSLPRRLALLDWAAEQSKWILEDDYNGEFRYSARPIQALQGLDKYQRVIYAGTFSKMLLPELRLGFLVVPSKLVQAFQLAKHYADTHTAHLEQATLALFITEGHYARHVRRVRKACLARQTALIAAIEQYLPDKLSVQTSDSGIHLVCWLKGDLTEEKVINKCRQLSLGAQPLSRYCQAPYPRQAILLGYAAHTPDELRESIKKLAQIL | not soluble |
